Target: Jun kinase JNK1, Q91Y86
Sequence (Q91Y86 whole entry): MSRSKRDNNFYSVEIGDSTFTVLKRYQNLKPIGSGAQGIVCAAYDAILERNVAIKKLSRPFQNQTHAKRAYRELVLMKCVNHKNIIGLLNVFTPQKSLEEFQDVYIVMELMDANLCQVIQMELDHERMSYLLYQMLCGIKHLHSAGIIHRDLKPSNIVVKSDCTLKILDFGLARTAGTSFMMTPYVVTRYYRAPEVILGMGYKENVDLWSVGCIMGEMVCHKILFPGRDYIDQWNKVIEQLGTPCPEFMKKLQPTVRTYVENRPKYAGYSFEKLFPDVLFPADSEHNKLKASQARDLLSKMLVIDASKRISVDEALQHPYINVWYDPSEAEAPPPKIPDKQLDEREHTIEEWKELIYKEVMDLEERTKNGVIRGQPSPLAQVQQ

B1: murine MINK (Misshapen/NIKs-related kinase) (protein)
chain: MGDPAPARSLDDIDLSALRDPAGIFELVEVVGNGTYGQVYKGRHVKTGQLAAIKVMDVTEDEEEEIKQEINMLKKYSHHRNIATYYGAFIKKSPPGNDDQLWLVMEFCGAGSVTDLVKNTKGNALKEDCIAYICREILRGLAHLHAHKVIHRDIKGQNVLLTENAEVKLVDFGVSAQLDRTVGRRNTFIGTPYWMAPEVIACDENPDATYDYRSDIWSLGITAIEMAEGAPPLCDMHPMRALFLIPRNPPPRLKSKKWSKKFTDFIDTCLIKTYLSRPPTEQLLKFPFIRDQPTERQVRIQLKDHIDRSRKKRGEKEETEYEYSGSEEEDDSHGEEGEPSSIMNVPGESTLRREFLRLQQENKSNSEALKQQQQLQQQQQRDPEAHIKHLLHQRQRRIEEQKEERRRVEEQQRREREQRKLQEKEQQRRLEDMQALRREEERRQAEREQEYKRKQLEEQRQSERLQRQLQQEHAYLKSLQQQQQQQQLQKQQQQQQQILPGDRKPLYHYGRGINPADKPAWAREVEERARMNKQQNSPLAKRSQAGAGPEPPISQASPSPPGPLSQTPPMQRPVEPQEGPHKSLVAHRVPLKPYAAPVPRSQSLQDQPTRNLAAFPASHDPDPAAVPTPTATPSARGAVIRQNSDPTSEGPGPSPNPPSWVRPDNEAPPKVPQRTSSIATALNTSGAGGSRPAQAVRASNPDLRRSDPGWERSDSVLPASHGHLPQAGSLERNRNRVGASTKLDSSPVLSPGNKAKPEDHRSRPGRPADFVLLKERTLDEAPKPPKKAMDYSSSSEEVESSEEEEEEGDGEPSEGSRDTPGGRSDGDTDSVTTMVVHDVEEISGTQPSYGGGTMVVQRTPEEERSLLLADSNGYTNLPDVVQPSHSPTENSKGQSPPTKDGGSDYQSRGLVKAPGKSSFTMFVDLGIYQPGGSGDTIPITALVGGEGGRLDQLQFDVRKGSVVNVNPTNTRAHSETPEIRKYKKRFNSEILCAALWGVNLLVGTENGLMLLDRSGQGKVYGLIGRRRFQQMDVLEGLNLLITISGKRNKLRVYYLSWLRNKILHNDPEVEKKQGWTTVGDMEGCGHYRVVKYERIKFLVIALKNSVEVYAWAPKPYHKFMAFKSFADLPHRPLLVDLTVEEGQRLKVIYGSSAGFHAVDVDSGNSYDIYIPVHIQSQITPHAIIFLPNTDGMEMLLCYEDEGVYVNTYGRIIKDVVLQWGEMPTSVAYICSNQIMGWGEKAIEIRSVETGHLDGVFMHKRAQRLKFLCERNDKVFFASVRSGGSSQVYFMTLNRNCIMNW
  levels of phosphorylated JNK in DP thymocytes after CD3/CD28 ligation (Western blot, anti-phospho-JNK1): MINK-deficient DP thymocytes express markedly reduced levels of phosphorylated JNK compared with control mice after CD3/CD28 ligation
